The values that follow are results of earlier work, collected in patent US20120107229A1, “NOVEL NANO-PROBES FOR MOLECULAR IMAGING AND TARGETED THERAPY OF DISEASES” (priority 2009, published 2012).

This series addresses T1, CD44 (Homo sapiens, UniProt P16070).
T1 construct: host or cells: melanoma cells (collagen fragment only)

T1 sequence (P16070 21-742, species assumed): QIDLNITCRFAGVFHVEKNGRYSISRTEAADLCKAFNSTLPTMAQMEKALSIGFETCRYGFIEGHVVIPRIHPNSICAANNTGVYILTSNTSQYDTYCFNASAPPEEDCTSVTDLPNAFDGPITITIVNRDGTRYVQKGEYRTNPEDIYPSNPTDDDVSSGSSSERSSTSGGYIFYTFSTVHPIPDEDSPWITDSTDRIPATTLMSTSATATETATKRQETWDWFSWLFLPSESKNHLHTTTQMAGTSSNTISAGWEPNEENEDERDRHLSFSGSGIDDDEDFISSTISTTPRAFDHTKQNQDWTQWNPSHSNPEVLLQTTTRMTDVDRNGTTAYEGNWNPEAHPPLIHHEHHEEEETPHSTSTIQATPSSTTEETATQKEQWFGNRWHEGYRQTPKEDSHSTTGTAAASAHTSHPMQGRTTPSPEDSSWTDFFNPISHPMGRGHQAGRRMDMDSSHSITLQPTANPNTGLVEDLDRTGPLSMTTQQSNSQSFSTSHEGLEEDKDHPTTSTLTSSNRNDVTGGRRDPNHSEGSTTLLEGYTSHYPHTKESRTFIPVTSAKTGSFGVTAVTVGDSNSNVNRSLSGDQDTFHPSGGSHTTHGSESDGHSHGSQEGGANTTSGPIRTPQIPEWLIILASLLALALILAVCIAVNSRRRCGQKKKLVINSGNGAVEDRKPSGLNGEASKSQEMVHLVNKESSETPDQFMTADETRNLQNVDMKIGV

Turning to GVKGDKGNPGWPGAP, the “binding to CD44 on cells” value (melanoma cells) is listed as “found to bind with CD44 on melanoma cells”.

For the sequence KNNQKSEPLIGRKKT, where the note is “fibronectin digestion and fractionation studies”, the “share of the binding of CD44 to intact fibronectin” value was 65.5%.
